Reference: the supplement of paper PMC11316812
± gives the standard deviation of the averaged measurements.

What was measured:
[1] = system: MCF7; test: percentage of EdU-negative (G0-arrested) nuclei per well, 72 h; higher = more G0 arrest; settings: reference: sequence is the full UniProt precursor, the tested protein was the secreted form or ectodomain
[2] = system: hTERT-HMEC; test: as above; settings: reference: sequence is the full UniProt precursor, the tested protein was the secreted form or ectodomain
[3] = protein concentration 0.0225 µM
[4] = protein concentration 0.03125 µM
[5] = protein concentration 0.3125 µM
[6] = protein concentration 0.02175 µM
[7] = protein concentration 0.2175 µM
[8] = protein concentration 0.0217075 µM
[9] = protein concentration 0.217075 µM
[10] = protein concentration 0.0197775 µM
[11] = protein concentration 0.197775 µM
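Note: secreted proteins added to cultured cells, EdU pulse at the end, nuclei found by Hoechst imaging, EdU status from nuclear versus surrounding ring intensity ratio, PBS as neutral control.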

## MLVRRGARAGPRMPRGWTALCLLSLLPSGFMSLDNNGTATPELPTQGTFSNVSTNVSYQETTTPSTLGSTSLHPVSQHGNEATTNITETTVKFTSTSVITSVYGNTNSSVQSQTSVISTVFTTPANVSTPETTLKPSLSPGNVSDLSTTSTSLATSPTKPYTSSSPILSDIKAEIKCSGIREVKLTQGICLEQNKTSSCAEFKKDRGEGLARVLCGEEQADADAGAQVCSLLLAQSEVRPQCLLLVLANRTEISSKLQLMKKHQSDLKKLGILDFTEQDVASHQSYSQKTLIALVTSGALLAVLGITGYFLMNRRSWSPTGERLGEDPYYTENGGGQGYSSGPGTSPEAQGKASVNRGAQENGTGQATSRNGHSARQHVVADTEL
[1]; [3]
  percentage of EdU-negative: 26.6 ± 1.4%
[1]; protein concentration 0.225 µM
  percentage of EdU-negative: 27.23 ± 0.19%
[2]; [3]
  percentage of EdU-negative: 5.14 ± 0.39%
[2]; protein concentration 0.225 µM
  percentage of EdU-negative: 5.89 ± 0.59%

## MDPKLGRMAASLLAVLLLLLERGMFSSPSPPPALLEKVFQYIDLHQDEFVQTLKEWVAIESDSVQPVPRFRQELFRMMAVAADTLQRLGARVASVDMGPQQLPDGQSLPIPPVILAELGSDPTKGTVCFYGHLDVQPADRGDGWLTDPYVLTEVDGKLYGRGATDNKGPVLAWINAVSAFRALEQDLPVNIKFIIEGMEEAGSVALEELVEKEKDRFFSGVDYIVISDNLWISQRKPAITYGTRGNSYFMVEVKCRDQDFHSGTFGGILHEPMADLVALLGSLVDSSGHILVPGIYDEVVPLTEEEINTYKAIHLDLEEYRNSSRVEKFLFDTKEEILMHLWRYPSLSIHGIEGAFDEPGTKTVIPGRVIGKFSIRLVPHMNVSAVEKQVTRHLEDVFSKRNSSNKMVVSMTLGLHPWIANIDDTQYLAAKRAIRTVFGTEPDMIRDGSTIPIAKMFQEIVHKSVVLIPLGAVDDGEHSQNEKINRWNYIEGTKLFAAFFLEMAQLH [Q96KN2]
[1]; [4]
  percentage of EdU-negative: 24.9 ± 0.15%
[1]; [5]
  percentage of EdU-negative: 23 ± 2.2%
[2]; [4]
  percentage of EdU-negative: 5.23 ± 0.23%
[2]; [5]
  percentage of EdU-negative: 5.9 ± 0.65%

## MNVLLGSVVIFATFVTLCNASCYFIPNEGVPGDSTRKCMDLKGNKHPINSEWQTDNCETCTCYETEISCCTLVSTPVGYDKDNCQRIFKKEDCKYIVVEKKDPKKTCSVSEWII
[1]; [3]
  percentage of EdU-negative: 25.8 ± 1.8%
[1]; protein concentration 0.225 µM
  percentage of EdU-negative: 24.5 ± 0.81%
[2]; [3]
  percentage of EdU-negative: 5.28 ± 0.77%
[2]; protein concentration 0.225 µM
  percentage of EdU-negative: 5.95 ± 1.1%

## MAPARAGCCPLLLLLLGLWVAEVLVRAKPKDMTSSQWFKTQHVQPSPQACNSAMSIINKYTERCKDLNTFLHEPFSSVAITCQTPNIACKNSCKNCHQSHGPMSLTMGELTSGKYPNCRYKEKHLNTPYIVACDPPQQGDPGYPLVPVHLDKVV [Q8TDE3]
[1]; [3]
  percentage of EdU-negative: 28.2 ± 0.91%
[1]; protein concentration 0.225 µM
  percentage of EdU-negative: 27.5 ± 4.3%
[2]; [3]
  percentage of EdU-negative: 5.33 ± 0.52%
[2]; protein concentration 0.225 µM
  percentage of EdU-negative: 5.09 ± 1.2%

## MTSSGPGPRFLLLLPLLLPPAASASDRPRGRDPVNPEKLLVITVATAETEGYLRFLRSAEFFNYTVRTLGLGEEWRGGDVARTVGGGQKVRWLKKEMEKYADREDMIIMFVDSYDVILAGSPTELLKKFVQSGSRLLFSAESFCWPEWGLAEQYPEVGTGKRFLNSGGFIGFATTIHQIVRQWKYKDDDDDQLFYTRLYLDPGLREKLSLNLDHKSRIFQNLNGALDEVVLKFDRNRVRIRNVAYDTLPIVVHGNGPTKLQLNYLGNYVPNGWTPEGGCGFCNQDRRTLPGGQPPPRVFLAVFVEQPTPFLPRFLQRLLLLDYPPDRVTLFLHNNEVFHEPHIADSWPQLQDHFSAVKLVGPEEALSPGEARDMAMDLCRQDPECEFYFSLDADAVLTNLQTLRILIEENRKVIAPMLSRHGKLWSNFWGALSPDEYYARSEDYVELVQRKRVGVWNVPYISQAYVIRGDTLRMELPQRDVFSGSDTDPDMAFCKSFRDKGIFLHLSNQHEFGRLLATSRYDTEHLHPDLWQIFDNPVDWKEQYIHENYSRALEGEGIVEQPCPDVYWFPLLSEQMCDELVAEMEHYGQWSGGRHEDSRLAGGYENVPTVDIHMKQVGYEDQWLQLLRTYVGPMTESLFPGYHTKARAVMNFVVRYRPDEQPSLRPHHDSSTFTLNVALNHKGLDYEGGGCRFLRYDCVISSPRKGWALLHPGRLTHYHEGLPTTWGTRYIMVSFVDP
[1]; [6]
  percentage of EdU-negative: 25.1 ± 1%
[1]; [7]
  percentage of EdU-negative: 28.2 ± 1.3%
[2]; [6]
  percentage of EdU-negative: 5.45 ± 1.1%
[2]; [7]
  percentage of EdU-negative: 8.17 ± 1.2%

## MERMLPLLALGLLAAGFCPAVLCHPNSPLDEENLTQENQDRGTHVDLGLASANVDFAFSLYKQLVLKAPDKNVIFSPLSISTALAFLSLGAHNTTLTEILKGLKFNLTETSEAEIHQSFQHLLRTLNQSSDELQLSMGNAMFVKEQLSLLDRFTEDAKRLYGSEAFATDFQDSAAAKKLINDYVKNGTRGKITDLIKDLDSQTMMVLVNYIFFKAKWEMPFDPQDTHQSRFYLSKKKWVMVPMMSLHHLTIPYFRDEELSCTVVELKYTGNASALFILPDQDKMEEVEAMLLPETLKRWRDSLEFREIGELYLPKFSISRDYNLNDILLQLGIEEAFTSKADLSGITGARNLAVSQVVHKAVLDVFEEGTEASAATAVKITLLSALVETRTIVRFNRPFLMIIVPTDTQNIFFMSKVTNPKQA
[1]; [4]
  percentage of EdU-negative: 24.5 ± 0.068%
[1]; [5]
  percentage of EdU-negative: 28 ± 3.5%
[2]; [4]
  percentage of EdU-negative: 4.76 ± 0.8%
[2]; [5]
  percentage of EdU-negative: 9.51 ± 0.15%

## MLVDGPSERPALCFLLLAVAMSFFGSALSIDETRAHLLLKEKMMRLGGRLVLNTKEELANERLMTLKIAEMKEAMRTLIFPPSMHFFQAKHLIERSQVFNILRMMPKGAALHLHDIGIVTMDWLVRNVTYRPHCHICFTPRGIMQFRFAHPTPRPSEKCSKWILLEDYRKRVQNVTEFDDSLLRNFTLVTQHPEVIYTNQNVVWSKFETIFFTISGLIHYAPVFRDYVFRSMQEFYEDNVLYMEIRARLLPVYELSGEHHDEEWSVKTYQEVAQKFVETHPEFIGIKIIYSDHRSKDVAVIAESIRMAMGLRIKFPTVVAGFDLVGHEDTGHSLHDYKEALMIPAKDGVKLPYFFHAGETDWQGTSIDRNILDALMLNTTRIGHGFALSKHPAVRTYSWKKDIPIEVCPISNQVLKLVSDLRNHPVATLMATGHPMVISSDDPAMFGAKGLSYDFYEVFMGIGGMKADLRTLKQLAMNSIKYSTLLESEKNTFMEIWKKRWDKFIADVATK [Q9NZK5]
[1]; [8]
  percentage of EdU-negative: 24.5 ± 1.2%
[1]; [9]
  percentage of EdU-negative: 28.4 ± 1.5%
[2]; [8]
  percentage of EdU-negative: 4.31 ± 0.15%
[2]; [9]
  percentage of EdU-negative: 7.86 ± 0.091%

## MALLWGLLVLSWSCLQGPCSVFSPVSAMEPLGRQLTSGPNQEQVSPLTLLKLGNQEPGGQTALKSPPGVCSRDPTPEQTHRLARAMMAFTADLFSLVAQTSTCPNLILSPLSVALALSHLALGAQNHTLQRLQQVLHAGSGPCLPHLLSRLCQDLGPGAFRLAARMYLQKGFPIKEDFLEQSEQLFGAKPVSLTGKQEDDLANINQWVKEATEGKIQEFLSGLPEDTVLLLLNAIHFQGFWRNKFDPSLTQRDSFHLDEQFTVPVEMMQARTYPLRWFLLEQPEIQVAHFPFKNNMSFVVLVPTHFEWNVSQVLANLSWDTLHPPLVWERPTKVRLPKLYLKHQMDLVATLSQLGLQELFQAPDLRGISEQSLVVSGVQHQSTLELSEVGVEAAAATSIAMSRMSLSSFSVNRPFLFFIFEDTTGLPLFVGSVRNPNPSAPRELKEQQDSPGNKDFLQSLKGFPRGDKLFGPDLKLVPPMEEDYPQFGSPK
[1]; [10]
  percentage of EdU-negative: 24.1 ± 0.71%
[1]; [11]
  percentage of EdU-negative: 29.1 ± 1.3%
[2]; [10]
  percentage of EdU-negative: 4.44 ± 1.1%
[2]; [11]
  percentage of EdU-negative: 10.5 ± 1%
